From article PMC3314686 (2012) come the findings set out here.

B1: GFP-DOR (human DOR/TP53INP2, full length) [modified: [35S]methionine label; [35S]methionine label] [human] / GST-LC3B (full-length proform) [human] (parent complex)
chain 1: MFQRLSSLFFSTPSPPEDPDCPRAFVSEEDEVDGWLIIDLPDSYAAPPSPGAAPAPAGRPPPAPSLMDESWFVTPPACFTAEGPGLGPARLQSSPLEDLLIEHPSMSVYVTGSTIVLEPGSPSPLPDAALPDGDLSEGELTPARREPRAARHAAPLPARAALLEKAGQVRRLQRARQRAERHALSAKAVQRQNRARESRPRRSKNQSSFIYQPCQRQFNY
chain 2: not shown

In this test the parent is B1. The test is described as follows: GST pull-down; in vitro translated [35S]methionine-labelled GFP fusion; three independent experiments; parent: 21; read off a plot.
As for chain 1 W35A, chain 1 I38A, the response is around 3.4 % Binding.
